Here are results for four substances from PMC5346439.

Test [1] deals with human MC3 (melanocortin receptor 3) (human) (UniProt P41968).
Test [2] has as its target human MC4 (melanocortin receptor 4) (human) (UniProt P32245).
For test [3], the target named is human MC5 (melanocortin receptor 5) (human) (UniProt P33032).
In test [4] the target is mouse MC3 (melanocortin receptor 3) (mouse) (UniProt P33033).
Sequence of UniProt P33033 (P33033 whole entry): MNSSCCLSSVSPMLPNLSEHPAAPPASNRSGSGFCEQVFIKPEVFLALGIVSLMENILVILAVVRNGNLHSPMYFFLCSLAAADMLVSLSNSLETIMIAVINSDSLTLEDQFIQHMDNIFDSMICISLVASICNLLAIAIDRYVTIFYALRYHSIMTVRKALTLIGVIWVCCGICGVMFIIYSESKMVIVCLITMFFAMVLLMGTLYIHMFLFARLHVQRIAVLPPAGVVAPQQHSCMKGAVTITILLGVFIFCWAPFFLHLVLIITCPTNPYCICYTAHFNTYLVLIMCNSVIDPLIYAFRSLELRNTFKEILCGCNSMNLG

Sequence of UniProt P33032 (P33032 whole entry): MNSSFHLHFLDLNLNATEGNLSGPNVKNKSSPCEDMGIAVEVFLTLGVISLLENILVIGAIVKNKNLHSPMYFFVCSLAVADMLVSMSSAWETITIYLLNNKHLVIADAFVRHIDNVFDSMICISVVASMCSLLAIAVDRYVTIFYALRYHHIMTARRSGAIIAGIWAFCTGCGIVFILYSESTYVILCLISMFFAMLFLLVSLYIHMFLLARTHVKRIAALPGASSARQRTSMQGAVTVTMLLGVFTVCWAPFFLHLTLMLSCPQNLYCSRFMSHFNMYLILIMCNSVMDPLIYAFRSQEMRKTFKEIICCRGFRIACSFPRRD
Sequence of UniProt P32245 (P32245 whole entry): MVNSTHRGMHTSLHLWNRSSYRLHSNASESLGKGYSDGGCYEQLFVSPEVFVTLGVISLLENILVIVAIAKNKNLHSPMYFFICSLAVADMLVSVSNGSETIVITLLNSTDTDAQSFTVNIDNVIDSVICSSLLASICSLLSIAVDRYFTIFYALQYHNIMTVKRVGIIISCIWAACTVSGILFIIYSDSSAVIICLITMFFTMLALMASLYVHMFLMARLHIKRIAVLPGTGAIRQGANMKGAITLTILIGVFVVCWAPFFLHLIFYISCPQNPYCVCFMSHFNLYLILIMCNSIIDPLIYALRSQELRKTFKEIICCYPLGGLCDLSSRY
Sequence of UniProt P41968 (P41968 whole entry): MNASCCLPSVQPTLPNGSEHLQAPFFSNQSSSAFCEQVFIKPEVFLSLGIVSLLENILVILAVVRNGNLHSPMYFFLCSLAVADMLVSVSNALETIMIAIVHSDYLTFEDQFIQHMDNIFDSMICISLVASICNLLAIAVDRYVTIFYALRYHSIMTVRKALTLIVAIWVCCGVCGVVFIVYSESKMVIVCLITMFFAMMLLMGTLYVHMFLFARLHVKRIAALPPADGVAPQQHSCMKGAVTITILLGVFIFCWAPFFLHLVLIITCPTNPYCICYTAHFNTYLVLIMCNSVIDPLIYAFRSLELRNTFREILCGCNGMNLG

In turn, NDP-αMSH (peptide) returned a pEC50 of cAMP production (HTRF cAMP assay) in receptor-transfected cells, with 0-30 μM fenoprofen; 9.40 at 0 μM, highest at 30 μM in test [1] of 9.66 pEC50. For the same substance, the pEC50 of cAMP production (HTRF cAMP assay) in receptor-transfected cells, with 0-30 μM fenoprofen; highest at 0 μM, 10.38 at 30 μM in test [2] worked out at 10.5 pEC50. The substance also yielded a pEC50 of cAMP production (HTRF cAMP assay) in receptor-transfected cells, with 0-30 μM fenoprofen; 8.98 at 0 μM, highest at 10 μM in test [3] of 9.06 pEC50. In addition, the pEC50 of cAMP production (HTRF cAMP assay) in receptor-transfected cells, with 0-30 μM fenoprofen; 9.78 at 0 μM, highest at 3 μM in test [4] was 9.86 pEC50.
For the substance ACTH (peptide), in test [1], the pEC50 of cAMP production (HTRF cAMP assay) in receptor-transfected cells, with 0-30 μM fenoprofen; 8.19 at 0 μM, highest at 30 μM came out at 8.87 pEC50. Moreover, the pEC50 of cAMP production (HTRF cAMP assay) in receptor-transfected cells, with 0-30 μM fenoprofen; 8.76 at 0 μM, highest at 30 μM in test [2] turned out to be 9.25 pEC50. The substance further had a pEC50 of cAMP production (HTRF cAMP assay) in receptor-transfected cells, with 0-30 μM fenoprofen; 6.78 at 0 μM, highest at 30 μM in test [3] of 7.29 pEC50. The substance also displayed a pEC50 of cAMP production (HTRF cAMP assay) in receptor-transfected cells, with 0-30 μM fenoprofen; 8.69 at 0 μM, highest at 30 μM in test [4] of 9.03 pEC50.
In test [1], “αMSH (melanocyte-stimulating hormone) (peptide)” yielded a pEC50 of cAMP production (HTRF cAMP assay) in receptor-transfected cells, with 0-30 μM fenoprofen; 7.58 at 0 μM, highest at 30 μM of 8.3 pEC50. In test [2], this substance yielded a pEC50 of cAMP production (HTRF cAMP assay) in receptor-transfected cells, with 0-30 μM fenoprofen; 8.38 at 0 μM, highest at 30 μM of 9.11 pEC50. The substance further displayed a pEC50 of cAMP production (HTRF cAMP assay) in receptor-transfected cells, with 0-30 μM fenoprofen; 6.64 at 0 μM, highest at 30 μM in test [3] of 7.22 pEC50. The substance also returned a pEC50 of cAMP production (HTRF cAMP assay) in receptor-transfected cells, with 0-30 μM fenoprofen; 8.33 at 0 μM, highest at 30 μM in test [4] of 8.86 pEC50.
Lys-γ3MSH (peptide): the pEC50 of cAMP production (HTRF cAMP assay) in receptor-transfected cells, with 0-30 μM fenoprofen; 8.80 at 0 μM, highest at 30 μM in test [1] amounted to 9.35 pEC50. In addition, the pEC50 of cAMP production (HTRF cAMP assay) in receptor-transfected cells, with 0-30 μM fenoprofen; 7.33 at 0 μM, highest at 30 μM in test [2] amounted to 7.72 pEC50. In test [3], this substance gave a pEC50 of cAMP production (HTRF cAMP assay) in receptor-transfected cells, with 0-30 μM fenoprofen; 6.13 at 0 μM, highest at 30 μM of 6.8 pEC50. The substance further yielded a pEC50 of cAMP production (HTRF cAMP assay) in receptor-transfected cells, with 0-30 μM fenoprofen; 9.19 at 0 μM, highest at 10 μM in test [4] of 9.3 pEC50.
